{"source": "paper PMC3213119", "about": "“Towards a Structural Comprehension of Bacterial Type VI Secretion Systems: Characterization of the TssJ-TssM Complex of an Escherichia coli Pathovar” (PLoS Pathogens, 2011)", "binders": {"B1": {"name": "TssM-ekto N-terminal thioredoxine fusion (domain or fragment)", "chain": "DYGSLTAAGLGQEWYGFGQTVFVRPMEQAWQQVLTPAAESLNARWRTAVVDGWNNAFSGRYPFKNVSSDASLPLLAKYLNTDTGRIARFLQNNLSGVLHREGSRWVPDTINTRGLTFNPAFLKAINTLSEIADVAFTTGNAGLHFELRPGTAAGVMQTTLITDNQKLIYVNQMPVWKRFTWPADTEAPGASLSWVSTQAGTRQYADLPGSWGLIRLLEMARRKAAPGVASGWSLSWQAQDGRMLNYTLRTEAGEGPLVLLKLRNFVLPETVFELSGTSAFTGNDEDAGDTVEETD"}}, "key": {"[1]": {"biological_target": "T1, TssJ N-terminal thioredoxine fusion (enteroaggregative Escherichia coli …)", "T1 construct": "TssJ of enteroaggregative Escherichia coli strain 17-2; residues 2-155 of the processed lipoprotein = residues 25-178 of the full-length protein; pETG-20A construct: hexahistidine tagged thioredoxin, TEV site, TssJ; used uncleaved on the CM5 chip; also called Trx-TssJ; source: E. coli T7 Iq pLysS, purified; not shown: thioredoxin, N-terminal, kept; His6, N-terminal, kept", "experiment": "SPR; Biacore X100; Trx-TssJ covalently coupled to a CM5 chip (600 RU), TssM construct injected (Trx-TssM-ekto at 10-0.312 µM); 10 mM Tris pH 8, 150 mM NaCl, 0.005% Tween; Kd from equilibrium levels, 1:1 model", "details": "both partners purified"}, "[2]": {"biological_target": "T2, TssJ (enteroaggregative E. coli Sci1 T6SS), residues 2-155 of the processed lipoprotein, fusion and tag … (enteroaggregative Escherichia coli …)", "T2 construct": "TssJ outer membrane lipoprotein of the sci1 cluster, enteroaggregative Escherichia coli strain 17-2; residues 2-155 of the processed lipoprotein = residues 25-178 of the full-length protein; a Gly left at position 1 may stem from the TEV site (surmised); also called native TssJ; SciN; not shown: thioredoxin, N-terminal, cleaved; His6, N-terminal, cleaved", "experiment": "SPR; Biacore X100; Trx-TssM-ekto covalently coupled to a CM5 chip (3000 RU), TssJ injected (40-0.312 µM); 10 mM Tris pH 8, 150 mM NaCl, 0.005% Tween; Kd from equilibrium levels, 1:1 model", "details": "both partners purified"}}}
{"binder": "B1", "values": [{"measurement": "Kd", "setting": "[1]", "result": 2.1, "unit": "µM"}, {"measurement": "Kd", "setting": "[2]", "result": "4 ± 0.5", "unit": "µM"}]}
